According to the DeepSol protein solubility set:

Assay: soluble on expression in E. coli; label from the status in PepcDB or PDB records

Sequence	soluble on expression in E. coli
MGSDKIHHHHHHMSVGRIGFIGTGSITEAIVTGLATCADVPTEVWLSPRNAQIADRLAQAYPMVQVAGENQEVVDRCDVVCLAVRPQVAESVLQALRFSGRHHVISFIATYGLDKLRTLIAPAKTLVRAAPLPTVAEHLCNTLVFPADDIARSLFTQLGGAIEVGSEEAFDVLFSATATMGSYFALLHNQARWLEQHGSTYSEARDYLASLHFGLASVARKTQTRFDELSKEFTTAGGLNEQVLDALGAHRVFNAFDDAFDQVLHRIGGTVSQRNE	not soluble
KSCCSCCPAECEKCAKDCVCKGGEAAEAEAEKCSCCQ	soluble
MISSTKLSILALALVGAVLARPQFPGGPPPGMSAVPPPIAAVLPPETLARLEAIHADSSLSELEKHKAIDTIMVNLPEEVHDRIPPPPGFAQLPAEVQAQLKTIHRDKNLDFQERQAAIHGVLENLAPEFKRLLPPPPPGFPQRRQ	soluble
MATNESLKEQLAKRNGRKPAANGNGEPITLKALLASPKVKKRFEEVLDKRAPQFMTSIINLYSNDSGLQKCDPMTVISSAMVAASLDLPIDKNLGYAWIVPYYDRKTKSYRAQFQLGYKGYIQLALRSGQYRYINAIPVRKGELIKWDPLTEEIEIDFEARESDEVIGYAAFFELLNGFRKTVYWRKEDVEAHRQKYSKSGFGWENDWDAMALKTVIKSLLSRWGILSVEMQKAVIEDDEERLNPPADNVVEIEPEKPEVPENDEPVFELPLDVEVEVPFEEDEKDGDDQEG	not soluble
MGSDKIHHHHHHMNRELILKALIDWNFWYKNQFVGIEREYSDQLLDLLEKGLAISVIGVKRSGKSTIINQVVKKLIEKKGEDPFDTLIVNFEDSRFGDIRTANDLFSLYELYKELRKKKKDSKPYIFLDEVQKIKGWEGFVRSIVDRKEANIVISGSTASVNNKSVREVLAGRHLILEVFPLSFKEFLEFKNIRLETELDMIAKESEIKVLFSEYLSYGGFPLVVSNERDKEKILLQLYEDIIFKDVISECNIRNEEEAKNLAIFYISNVGNKIRFRKISRSLNIPFRNVQRYTECMKNAYLIFFVKALSPKLSEMAKYDKKVYCIDNGISNVLGYRLNQNIGSLFENLIFLELLRRYGINNVFYYRGRRGEVDFVVKVKDEIREIYQVTYQLSDVERELKGIEEFLKIRKTKAYIITFDDEGEIKVGDDLVKVVKGWKWLLLE	not soluble
RKRNRIPLRCTICRKRKVKCDKLRPHCQQCTKTGVAHLCHYMEQTWAEEAEKELLKDNELKKLRERVKSLEKTLSKVHSSP	soluble
MSLVTVSDVKQYHFCKAIPWINYVMGYREPSTFSMEEGKKISYEEVVKSLNLTTPVKYEVCLSYNGLSGCIDILAGDRKYTVVEVKAFKRGNFSHFRYQLLAYAYLVRKRLGIVERAILVMEGKKVLEIEPTEEHYRYIENVVKKIEEIVNSEKLPAVNVEKCDFCQYRRICPVSVWSEGHHHHHH	soluble
STREHPPEPLDFFIWTVEDVGSWLEEINLGGYRQIFKENGVNGEYLESMSVFTTEQILHFIRRHHMKWGDFITLCKELRRIKVACLKGEQRVRRPWWAPSCLSVVFVKAAKRNRQSRVVSLKLES	soluble
MPWGWIEALLGHACPGCGGPLDLPALCGRCRAGLEAFSTGEMVYLGHYARVGPLVRALKYGRREALARALAEPLARAVAARGWRLQGVTAVPTLPHRLALRGYNPPEVLARALAKALGVPYRPVLFRRRYTPGQPTRGFKERRFLPGDLFGARVRVEGAWLLVDDVLTSGATFLRARGALLEAGAAHVYGAFLAVRDPRALGPYR	soluble
MASKLLRAVILGPPGSGKGTVCQRIAQNFGLQHLSSGHFLRENIKASTEVGEMAKQYIEKSLLVPDHVITRLMMSELENRRGQHWLLDGFPRTLGQAEALDKICEVDLVISLNIPFETLKDRLSRRWIHPPSGRVYNLDFNPPHVHGIDDVTGEPLVQQEDDKPEAVAARPRQYKDVAKPVIELYKSRGVLHQFSGTETNKIWPYVYTLFSNKITPIQSKEAYLEHHHHHH	soluble
MAPKRLMVEHALARAKEAAGLADVKKVYTYYGDEACTVFIGRTKQGKAVVVWVPEKKGSVVVKGVDSGISEAEARAILQRDRRPRRIIDATLGMEKGVPLWELTYIDAEGRYSFYYLHFADGAFLKRYSFQQ	not soluble
KVVFAKEQPAHREVQAEAGASATLSCEVAQAQTEVTWYKDGKKLSSSSKVRVEAVGCTRRLVVQQAGQAEAGEYSCEAGGQQLSFRLQVAGQCFG	soluble
SVLLSRELHPVAPLLDNLISALNKVYQRKGVNISMDISPEISFVGEQNDFVEVMGNVLDNACKYCLEFVEISARQTDDHLHIFVEDDGPGIPHSKRSLVFDRGQRADTLRPGQGVGLAVAREITEQYAGQIIASDSLLGGARMEVVFGRQHPTQKEE	soluble
MKKHIIIKTIPKKEEIISRDLCDCIYYYDNSVICKPIGPSKVYVSTSLENLEKCLQLHYFKKLVKNIEIFDEVHNSKPNCDKCLIVEIGGVYFVRRVNGVPR	soluble
MLWRKRLFAHLYPGLSARHEALVAERKRALFREALRRARPERVLEIGPGPGTNLAHLPEGVAYLALEPNPFFHPRLREEARKRGLALTLLPGRAEAIPLPGGSVDLVVATLVLCSVADPEKAIEEVHRVLRPGGAYLFLEHVAAPKRTPLRFLQEVATPFFAFFGDGCHPNRETLALIQARFPRVEAEAFPLPLPVVAPHVAGLAFKEGGSGGSLQGPWA	soluble
MDYILGRYVKIARYGSGGLVGGGGKEQYVENLVLWENIIKTAYCFITPSSYTAALETANIPEKDFSNCFRFLKENFFIIPGEYNNSTENNRYSRNFLHYQSYGANPVLVQDKLKNAKVVILGCGGIGNHVSVILATSGIGEIILIDNDQIENTNLTRQVLFSEDDVGKNKTEVIKRELLKRNSEISVSEIALNINDYTDLHKVPEADIWVVSADHPFNLINWVNKYCVRANQPYINAGYVNDIAVFGPLYVPGKTGCYECQKVVADLYGSEKENIDHKIKLINSRFKPATFAPVNNVAAALCAADVIKFIGKYSEPLSLNKRIGIWSDEIKIHSQNMGRSPVCSVCGNRMLEHHHHHH	soluble
GSASKICQFKLVLLGESAVGKSSLVLRFVKGQFHEYQESTIGAAFLTQSVCLDDTTVKFEIWDTAGQERYHSLAPMYYRGAQAAIVVYDITNQETFARAKTWVKELQRQASPSIVIALAGNKADLANKRMVEYEEAQAYADDNSLLFMETSAKTAMNVNDLFLAIAKKLPKSEPQNLGG	soluble
MGSDKIHHHHHHMSTPCILCVAITGSLPTKDNNPAVPITISEQIESTHEAFEAGATICHAHVRNDDQTPSSDPEKFERLKEGLEKHCPGMIIQFSTGGRSGAGKARGGMLPLAPDMASLSVGSNNFPTRVYENPPDLVDWLAGEMRTHQVTPEVEAFDLSHILNAIALHKSGALYGKLYVQFVMGVKNAMPADKEVFDFYVDLVKRRAPDANWCAAGIGANQLVVNEWAIAAGGHTRAGLEDNVRLDRNTLAPSNAALIRRAAELCEKYERPVATWQQAREILDVPLRA	not soluble
PEYSLFVGDLTPDVDDGMLYEFFVKVYPSCRGGKVVLDQTGVSKGYGFVKFTDELEQKRALTECQGAVGLGSKPVRLSVAIPKASRVKPVE	soluble
MGHHHHHHSHMRLTLLCCTWREERMGEEGSELPVCASCGQRIYDGQYLQALNADWHADCFRCCDCSASLSHQYYEKDGQLFCKKDYWARYGESCHGCSEQITKGLVMVAGELKYHPECFICLTCGTFIGDGDTYTLVEHSKLYCGHCYYQTVVTPVIEQILPDSPGSHLPHTVTLVSIPASSHGKRGLSVSIDPPHGPPGCGTEHSHTVRVQGVDPGCMSPDVKNSIHVGDRILEINGTPIRNVPLDEIDLLIQETSRLLQLTLEHDPHDTLGHGLGPETSPLSSPAYTPSGEAGSSARQKPVLRSCSIDRSPGAGSLGSPASQRKDLGRSESLRVVCRPHRIFRPSDLIHGEVLGKGCFGQAIKVTHRETGEVMVMKELIRFDEETQRTFLKEVKVMRCLEHPNVLKFIGVLYKDKRLNFITEYIKGGTLRGIIKSMDSQYPWSQRVSFAKDIASGMAYLHSMNIIHRDLNSHNCLVRENKNVVVADFGLARLMVDEKTQPEGLRSL	soluble
GPGSMSLLNTTLQTLVVRLRDMSGNVTQQKLHNRVFDAYEAKSLVFEAISPEQQAVMQQFGTIPSQHPAGQPVLLDGWADLLTVHREDNLYQLLPRRAKNNASYSTMRAICCSAGSPFTMDHRVDPIDYKFVFRAADMEVRNKFNATNQDKIPPTIWFDGILSAPNDSGLVSCHNSLSPAHINNLAGTYQFLKEWSNEPPEGDRHRQLKEMYSNLLSKRTHLFIGSSSVPGREILNYARSKNVFVYAKRGMHYVFHA	not soluble
MCMYEADVRINGTLIWYYFICKREVWLISHGITADQEDENIEIGRFIHENAYSREKKEIDFDNFKVDVADSIDGKIIVQEVKKSSKFKKSARMQLLFYIYEIKKSGIDARGILLFPEERKREEVVLDEASQKELDSVIKDIFKIVNLEKPPIPEKCKYCRNCAYSELCWA	not soluble
GPGSMKRSRRATQQEDVMRALKEGVQALSVSSALSTKDLVCRGDHARAIQQFLEDEKHHTMQIFGMPGTGKTATVNFALAQLVSRRGTKPTAVFLNGFVVQKSSDIYYTLHHHLTKARLGAVEPCPVAQCASRIEKRFRHGWGGKPPALCVIVVDEVDKILEKHSKGFFKVVDWLTLPYANCKLITISNSMELQLDAKTKSRLGVVNQLVFSSYGTQELREILVHRVGAIEPKLFADQAVNQLCTQTASHYGDVRRLLQSASAAICGVLMRMRDDAVDVSSTDGIITLREIHTVVRQIFHDRFVEFITTMRMPALFITVAVLGKETEALIRKREVDCRIPLERLLAITQQAQRKCMNVLRPINRAAFMEEIELLRQVSLIEVCIGEDRIPIRCVDELLDAKEEVFVLLLQPYQMVVDSCRLHDAFGATYGAALHL	not soluble
MSLRPRQLLLATDLGARCDRALDRAIQLSRAWHAALTVVHAVEQVELIDDEPSWRQPPDAALAIQAELEDELGEAGLSSIDARVLKGKPSEVVLKVAEEVEAELILTGVKRDGALEKALLGDTVTELARQSRVPVLVVKKRLRKPYGRIVVATDLSELSRAALARAVDLFGPDNLVVFHASFAHFASRMDDRVAYESELRSDAIQNCRDFIRDVAGEEAAATMEVMVEYGEPDLLLEKYVQDKQVDLVVVSTRGRSGLLGVLLGSVAMRILDSVACDVLIVRSEGHHHHHH	soluble
IIGGQKAKMGNFPWQVFTNIHGRGGGALLGDRWILTAAHTLYPKEHEAQSNASLDVFLGHTNVEELMKLGNHPIRRVSVHPDYRQDESYNFEGDIALLELENSVTLGPNLLPICLPDNDTFYDLGLMGYVSGFGVMEEKIAHDLRFVRLPVANPQACENWLRGKNRMDVFSQNMFCAGHPSLKQDACQGDSGGVFAVRDPNTDRWVATGIVSWGIGCSRGYGFYTKVLNYVDWIKKEMEEED	soluble
MIIRPERQGDEEAIARVTEDAFRNVEHRSGTEQLIVARLRDAGALTVSLVAEDSEGIIGHVGFSPVTLSSGETGWFCLAPLSVTPERQGEGVGSRLARDGLAVLERLSAAGCVVVGDPAYYGRFGFRPVAGLSAEGIPDEYFTVLRLHGGTPSGIVGFHPGFDGDNA	not soluble
MGHHHHHHENLYFQSHLYFQSHDCGSAVTERPKAAPIPTVNPEGKLKKEPNMFSPTLMLPGLGTLSSSQMYPACSQMPTQPAQLGPGKQDTLHSCWQQLYSPSPSASSLLSLHSHSSFTAEVPQPGAQGSSSLPAYNPLNWPDEKNSSFYRNFGNTHGMGAALVSAAGMQSVSSSSIVQGTHQASATTASIMTMPRTPGEVPFLRQQVGYRS	not soluble
